In patent US20240336672A1:
Where a chain is given by its changes, count along the chain named.

What was measured:
Settings in all cases: remark: other sources report otherwise
[1] = target: SARS-CoV-2 RBD (B.1.1.7) domain (SARS-CoV-2); assay: ELISA; parameters: unit not given beside the values
[2] = target: SARS-CoV-2 RBD (B.1.351) domain (SARS-CoV-2); assay: ELISA; parameters: unit not given beside the values
[3] = target: T1, SARS-CoV-2 Spike ectodomain (tri-S), Wuhan (SARS-CoV-2), P0DTC2; assay: ELISA; parameters: unit not given beside the values
[4] = target: SARS-CoV-2 RBD (P.1) domain (SARS-CoV-2); assay: ELISA; parameters: unit not given beside the values
[5] = target: SARS-CoV-2 RBD (B.1.1.7) domain (SARS-CoV-2); assay: RBD/ACE2 blocking ELISA
[6] = target: SARS-CoV-2 RBD (B.1.351) domain (SARS-CoV-2); assay: RBD/ACE2 blocking ELISA
[7] = target: SARS-CoV-2 RBD (P.1) domain (SARS-CoV-2); assay: RBD/ACE2 blocking ELISA
[8] = target: T1, SARS-CoV-2 Spike ectodomain (tri-S), …; assay: tri-S/ACE2 blocking ELISA
[9] = target: T1, SARS-CoV-2 Spike ectodomain (tri-S), …; assay: competition ELISA vs bio-Cv2.1353
[10] = target: SARS-CoV-2 RBD (P.1) domain (SARS-CoV-2); assay: ELISA
[11] = target: T1, SARS-CoV-2 Spike ectodomain (tri-S), …; assay: competition ELISA vs bio-Cv2.3235
[12] = target: T1, SARS-CoV-2 Spike ectodomain (tri-S), …; assay: tri-S/ACE2 blocking ELISA [B]
[13] = target: T1, SARS-CoV-2 Spike ectodomain (tri-S), …; assay: competition ELISA vs bio-Cv2.3194
[14] = target: T1, SARS-CoV-2 Spike ectodomain (tri-S), …; assay: competition ELISA vs bio-Cv2.1169
[15] = target: SARS-CoV-2 RBD (B.1.1.7) domain (SARS-CoV-2); assay: RBD-ACE2 competition ELISA; parameters: unit not given beside the values
[16] = target: SARS-CoV-2 RBD (B.1.351) domain (SARS-CoV-2); assay: RBD-ACE2 competition ELISA; parameters: unit not given beside the values
[17] = target: SARS-CoV-2 RBD (P.1) domain (SARS-CoV-2); assay: RBD-ACE2 competition ELISA; parameters: unit not given beside the values
[18] = target: T1, SARS-CoV-2 Spike ectodomain (tri-S), …; assay: competition ELISA vs bio-Cv2.5213
[19] = target: T1, SARS-CoV-2 Spike ectodomain (tri-S), …; assay: competition ELISA, spike protein binding to ACE2 ectodomain
[20] = target: SARS-CoV-2 RBD (B.1.1.7) domain (SARS-CoV-2); assay: RBD-ACE2 competition ELISA; parameters: unit not given beside the values; remark: listed apart in the source
[21] = target: SARS-CoV-2 RBD (B.1.351) domain (SARS-CoV-2); assay: RBD-ACE2 competition ELISA; parameters: unit not given beside the values; remark: listed apart in the source
[22] = target: SARS-CoV-2 RBD (P.1) domain (SARS-CoV-2); assay: RBD-ACE2 competition ELISA; parameters: unit not given beside the values; remark: listed apart in the source
[23] = target: T1, SARS-CoV-2 Spike ectodomain (tri-S), …; assay: SPR (Biacore), antibody immobilised
[24] = target: SARS-CoV-2 RBD (B.1.1.7) domain (SARS-CoV-2); assay: ELISA; parameters: unit not given beside the values; remark: listed apart in the source
[25] = target: SARS-CoV-2 RBD (B.1.351) domain (SARS-CoV-2); assay: ELISA; parameters: unit not given beside the values; remark: listed apart in the source
[26] = target: SARS-CoV-2 RBD (P.1) domain (SARS-CoV-2); assay: ELISA; parameters: unit not given beside the values; remark: listed apart in the source
[27] = target: T1, SARS-CoV-2 Spike ectodomain (tri-S), …; assay: biotinylated tri-S on immobilised ACE2, competition ELISA
[28] = target: T1, SARS-CoV-2 Spike ectodomain (tri-S), …; assay: ELISA, coated antigen
[29] = target: T1, SARS-CoV-2 Spike ectodomain (tri-S), …; assay: tri-S capture ELISA

B1: ADG-2 (antibody, V domains shown)
VH: EVQLVESGGGLVKPGGSLRLSCAASGFTFSSYYMNWVRQAPGKGLEWVSSISEDGYSTYYPDSLKGRFTISRDSAKNSLYLQMNSLRADDTAVYYCARDFSGHTAWAGTGFEYWGQGTLVTVSS
VL: QSVLTQPPSVSGAPGQRITISCTGSSSNIGAGYDVHWYQQLPGTAPKLLIYGSSSRNSGVPDRFSGSKSGTSASLAITGLQAEDEADYYCQSYDSSLSVLYTFGTGTKVTVL
- AUC [1]: 3
- AUC [2]: 3
- AUC [3]: 3
- AUC [4]: 3
- % binding inhibition [5]: 92%
- % binding inhibition [6]: 95%
- % binding inhibition [7]: 89%
- % binding inhibition [8]: 96%

B2: Cv2.5213 (recombinant human IgG1) (antibody)
heavy: EVQLVESGGGLIQPGGSLRLSCAASGFTVSSNYMSWVRQAPGKGLEWVSLIYSGGSTYYADSVKGRFTISRDNSKNTLYLQMNSLRAEDTAVYYCARDLNYYGMDVWGQGATVTVSSASTKGPSVFPLAPSSKSTSGGTAALGCLVKDYFPEPVTVSWNSGALTSGVHTFPAVLQSSGLYSLSSVVTVPSSSLGTQTYICNVNHKPSNTKVDKKVEPKSCDKTHTCPPCPAPELLGGPSVFLFPPKPKDTLMISRTPEVTCVVVDVSHEDPEVKFNWYVDGVEVHNAKTKPREEQYNSTYRVVSVLTVLHQDWLNGKEYKCKVSNKALPAPIEKTISKAKQPREPQVYTLPPSRDELTKNQVSLTCLVKGFYPSDIAVEWESNGQPENNYKTTPPVLDSDGSFFLYSKLTVDKSRWQQGNVFSCSVMHEALHNHYTQKSLSLSPGK
light: not shown
- % inhibition (competition) [9]: 84
- EC50 (read off the curve) [10]: 0.07 µg/mL
- % inhibition (competition) [11]: 98
- AUC of blocking [12]: 181
- % inhibition (competition) [13]: 81
- % inhibition (competition) [14]: 81
- AUC (RBD block.) [15]: 22
- AUC (RBD block.) [16]: 9
- AUC (RBD block.) [17]: 4
- % inhibition (competition) [18]: 90
- ACE2 Block (%) [19]: 90%
- AUC (RBD block.) [20]: 45
- AUC (RBD block.) [21]: 18
- AUC (RBD block.) [22]: 9
- Kd [23]: 6.54 nM
- AUC (RBD bind.) [24]: 13
- AUC [25]: 1
- AUC (RBD bind.) [25]: 2
- AUC (RBD bind.) [26]: 9
- EC50 [27]: 0.22 µg/mL
- ELISA OD [28]: 3.8 OD
- triS ELISA (AUC) [28]: 14.2 AUC
- triS Capt-ELISA [29]: 2.1

B3: Cv2.3235 (recombinant human IgG1) (antibody)
heavy: B2 heavy with S31R, L50V, Y58F, L99G, N100D, A111T
light: DIQMTQSPSFLSASVGDRVTITCRASQGISSFLAWYQQKPGKAPKLLIYGASTLQSGVTSRFSGSGSGTEFTLTISSLQPEDFATYYCQRLDSYPPITFGQGTRLEIKRTVAAPSVFIFPPSDEQLKSGTASVVCLLNNFYPREAKVQWKVDNALQSGNSQESVTEQDSKDSTYSLSSTLTLSKADYEKHKVYACEVTHQGLSSPVTKSFNRGEC
- % inhibition (competition) [9]: 56
- % inhibition (competition) [11]: 93
- AUC of blocking [12]: 164
- % inhibition (competition) [13]: 60
- % inhibition (competition) [14]: 34
- AUC (RBD block.) [15]: 15
- AUC (RBD block.) [16]: 13
- AUC (RBD block.) [17]: 2
- % inhibition (competition) [18]: 67
- ACE2 Block (%) [19]: 78%
- AUC (RBD block.) [20]: 30
- AUC (RBD block.) [21]: 25
- AUC (RBD block.) [22]: 4
- Kd [23]: 5.37 nM
- AUC (RBD bind.) [24]: 13
- AUC [25]: 1
- AUC (RBD bind.) [25]: 1
- AUC (RBD bind.) [26]: 2
- EC50 [27]: 0.47 µg/mL
- ELISA OD [28]: 3.6 OD
- triS ELISA (AUC) [28]: 13.2 AUC
- triS Capt-ELISA [29]: 1

B4: COV2-2130 (antibody, V domains shown)
VH: EVQLVESGGGLVKPGGSLRLSCAASGFTFRDVWMSWVRQAPGKGLEWVGRIKSKIDGGTTDYAAPVKGRFTISRDDSKNTLYLQMNSLKTEDTAVYYCTTAGSYYYDTVGPGLPEGKFDYWGQGTLVTVSS
VL: not shown
- AUC [1]: 3
- AUC [2]: 3
- AUC [4]: 3
- % binding inhibition [5]: 85%
- % binding inhibition [6]: 96%
- % binding inhibition [7]: 90%

B5: Cv2.1353 (recombinant human IgG1) (antibody)
heavy: EVQLVESGGGLVQPGGSLRLSCAASGVTVSSNYMNWVRQAPGKGLEWVSVIYSGGSTFYADSVKGRFIISRDNSKNTLYLQMNSLKTEDTAVYYCARDLGPMGFDIWGQGTMVTVSSASTKGPSVFPLAPSSKSTSGGTAALGCLVKDYFPEPVTVSWNSGALTSGVHTFPAVLQSSGLYSLSSVVTVPSSSLGTQTYICNVNHKPSNTKVDKKVEPKSCDKTHTCPPCPAPELLGGPSVFLFPPKPKDTLMISRTPEVTCVVVDVSHEDPEVKFNWYVDGVEVHNAKTKPREEQYNSTYRVVSVLTVLHQDWLNGKEYKCKVSNKALPAPIEKTISKAKQPREPQVYTLPPSRDELTKNQVSLTCLVKGFYPSDIAVEWESNGQPENNYKTTPPVLDSDGSFFLYSKLTVDKSRWQQGNVFSCSVMHEALHNHYTQKSLSLSPGK
light: DIQMTQSPSFLSASVGDRVTITCRASQGISSYLAWYQQKPGKAPKLLIYAASTLQSGVPSRFSGSGSGTEFTLTISSLQPEDFATYYCQQLNSDPPVTFGPGTKVDIKRTVAAPSVFIFPPSDEQLKSGTASVVCLLNNFYPREAKVQWKVDNALQSGNSQESVTEQDSKDSTYSLSSTLTLSKADYEKHKVYACEVTHQGLSSPVTKSFNRGEC
- % inhibition (competition) [9]: 88
- % inhibition (competition) [11]: 97
- AUC of blocking [12]: 156
- % inhibition (competition) [13]: 88
- % inhibition (competition) [14]: 86
- AUC (RBD block.) [15]: 102
- AUC (RBD block.) [16]: 31
- AUC (RBD block.) [17]: 33
- % inhibition (competition) [18]: 90
- ACE2 Block (%) [19]: 92%
- AUC (RBD block.) [20]: 203
- AUC (RBD block.) [21]: 62
- AUC (RBD block.) [22]: 66
- Kd [23]: 2.22 nM
- AUC (RBD bind.) [24]: 12
- AUC [25]: 13
- AUC (RBD bind.) [25]: 12
- AUC (RBD bind.) [26]: 13
- EC50 [27]: 0.26 µg/mL
- ELISA OD [28]: 3.5 OD
- triS ELISA (AUC) [28]: 14 AUC
- triS Capt-ELISA [29]: 2.2
